Laboratory results: the supplement of paper PMC9170038

Tested on: MS2 coat protein
Assay: apparent KD of MS2 coat protein; designed switch direction (-1 OFF switch, 1 ON switch): -1; higher = weaker reporter binding
How it was run: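 Designed RNA switches were transcribed on Illumina chips by stalled E. coli RNA polymerase and titrated with SNAP-549-labelled MS2 coat protein from 0.7 or 1.5 nM, doubling to 3 µM. Step length ran from 0.8–1.5 h at the lowest concentration to 10–20 min at the highest. The apparent KD is the median over clusters for each design, from curve-fitted normalised cluster fluorescence.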

[1] = Eterna round: R95, input ligand: microRNA oligo, concentration not stated
[2] = input ligand: microRNA oligo, concentration not stated
[3] = Eterna round: R95, input ligand: FMN 200 uM
[4] = Eterna round: R95, input ligand: none

Sequence | apparent KD of MS2 coat protein (input ligand: FMN 200 uM) | apparent KD of MS2 coat protein (input ligand: none) | apparent KD of MS2 coat protein [1] | apparent KD of MS2 coat protein [2] | apparent KD of MS2 coat protein [3] | apparent KD of MS2 coat protein [4]
ACGAAGCACGAGGAUAUGACCAUAGUGAUAUGGUCAGAAGGCGUAACAUGAGGAUCACCCAUGUAGUGGCCUCG [Eternabot (Original) Solution 12] (Eterna round: R97, puzzle: Exclusion 6) | 212 nM | 20.1 nM |  |  |  | 
AAACAGCAAGGAUAUACGGGCUGUGCUUUUCAUUUCAUACAACAUGAGGAUCACCCAUGUAGAAGGUGCAACAA [Ex2 #4] (Eterna round: R97, puzzle: Exclusion 2) | 125 nM | 34.3 nM |  |  |  | 
AAGCUUUUUGGUGACCUCGACAUGAGGAUCACCCAUGUCGUAUUAGAACUUCGGACGAUGAUCGUGCUCGUCAUAAG [Eternabot (Original) Solution 43] (Eterna round: R97, puzzle: Sensor, turn-off variant 1) | 598 nM | 677 nM |  |  |  | 
CGUGCGUAUGUGAGGAUAUGCUGGUCCUUGGAUCAGCAGAAGGCACAUGAGGAUCACCCAUGUGGUGUCGUACC [salish99_Bmod_Ex4_001] (puzzle: Brourd's mod of Exclusion 4) |  |  | 170 nM |  |  | 
CAAAUCAGGCGAGGAUAUCCGAAAGGAAGUGUAGGAGAAGGCGCGAAAUAUAAAACAUGAGGAUCACCCAUGUCGUCCCGUGUG [PowerStrip EXNG 1.21] (Eterna round: R96, puzzle: Exclusion NG 1) | 169 nM | 130 nM |  | 117 nM |  | 
CUUCACCCACCAGAGCUCACCCACAUACCUGCUCAGGUGACAUGAGGAUCACCCAUGUUUUUUGCCCGUCUUAUCUU [Atquertebi] (puzzle: Sensor v3, turn-off variant 2) |  |  | 181 nM |  | 33.1 nM | 34.3 nM
AUAGGUUCGUAGGAUAUUCCUGCAGGCGCGCUGGAAGAAGGAUGAACAUGAGGAUCACCCAUGUGAACACUCCG [Eternabot (L2) Solution 88] (Eterna round: R97, puzzle: Exclusion 6) | 78.3 nM | 19.6 nM |  |  |  | 
CGUUCGCGAGGAUAUGCAUUCGAGUCCAUUACGUGUCUGGGACUUGAGGAUCACCCAAGUAGAAGGCGUCUCAC [salish99_ex2_r4_646] (Eterna round: R97, puzzle: Exclusion 2) | 135 nM | 154 nM |  |  |  | 
AUCCAGGCAGGAUAUUGCCGGUUGCACAUGAGGAUCACCCAUGUACUCCUAGGUCGAUGGCAAGAAGGGCUAUCCA [Eternabot (Original) Solution 24] (Eterna round: R97, puzzle: Exclusion 5) | 26.6 nM | 36 nM |  |  |  | 
GCGUUCUGAGGAUAUACAUGAGGAUCACCCAUGUUGAGAAGAAAGUAUAAAAGAUUGUGUAGAAGGCAGAGUGC [JR_Ex3_Sub070] (Eterna round: R97, puzzle: Exclusion 3) | 112 nM | 38.4 nM |  |  |  | 
AGGUCAGAAGGAUAUACAUGAGGAUCACCCAUGUGGGAUACAACGAGCCGUUGUUCAGGUAGAAGGUCUAAAAU [Eternabot (Original) Solution 33] (Eterna round: R97, puzzle: Exclusion 3) | 86 nM | 77.3 nM |  |  |  | 
CGGUCCUGAGUGAGGAUAUUGUCAGGCGAAGCCUGCAAGAAGGUACUUGAGGAUCACCCAAGUACGCUCUUGGC [Estimama] (Eterna round: R97, puzzle: Brourd's mod of Exclusion 4) | 21.2 nM | 16.8 nM |  |  |  | 
GCUGGACAAGGAUAUAUAUGACGUGCUUCGGCACGAAGAUCACAUGAGGAUCACCCAUGUAGAAGGUGUCCAGC [E2/8-C2] (Eterna round: R97, puzzle: Exclusion 2) | 594 nM | 91.8 nM |  |  |  | 
UAUUAGCUUGCGAGAUCCGACAUGAGGAUCACCCAUGUGCUCGUCUUAUAUGGGAGGGAGGGAAAACCCUCCCUCCC [mod-Eli] (Eterna round: R97, puzzle: Sensor, turn-off variant 1) | 23.8 nM | 25.4 nM |  |  |  | 
CCUUCUCCACAGGAUAUGCUCAUCUAAUGAUGAGCAGAAGGGUGGACAUGAGGAUCACCCAUGUUUAUCAAUGG [Omei Ex6 D2] (Eterna round: R97, puzzle: Exclusion 6) | 589 nM | 428 nM |  |  |  | 
UUUAAUUUAAUUAAGAUCACAUGAGGAUCACCCAUGUAAUUAUAGGAUAUCAGCUCGUGUAGAGCUGAGAAGGAUAAUUACAUA [ExNG3/5-A3] (Eterna round: R96, puzzle: Exclusion NG 3) | 81.9 nM | 72.7 nM |  | 58.2 nM |  | 
CCCGCAGGCUUUUUGCUCGACAUGAGGAUCACCCAUGUUGAAUGGGUUGUGUGUGUGUGAUACAUAUAUAUGGUCCU [-26.2, -50.8 kcal, A 19%] (Eterna round: R97, puzzle: Sensor, turn-off variant 1) | 242 nM | 349 nM |  |  |  | 

Sequence | apparent KD of MS2 coat protein (input ligand: FMN 200 uM) | apparent KD of MS2 coat protein (input ligand: none) | apparent KD of MS2 coat protein [1] | apparent KD of MS2 coat protein [2] | apparent KD of MS2 coat protein [3] | apparent KD of MS2 coat protein [4]
GAAAAGGUAGGAUAUACGAAAAAUAAGGGUAGAAAAAAAACACAUGAGGAUCACCCAUGUAGAAGGACCAAAAG [salish99_ex2_r3_082] (puzzle: Exclusion 2) |  |  | 27.8 nM |  | 65.7 nM | 33 nM
UCGGGCUCAGAGGAUAUGGGCGAAAAUAUAAAACCAGAAGGCUGAACUUGAGGAUCACCCAAGUACGGGCAAAA [Inxeridi] (Eterna round: R97, puzzle: Exclusion 6) | 143 nM | 67.9 nM |  |  |  | 
CUCCGGCGUGUAGGAUAUGGAUCCGAUUAGGAUCCAGAAGGACAUGAGGAUCACCCAUGUACAUGUAGACGGUCGUCACCGGGC [salish99_ExNG1_r04_208] (Eterna round: R96, puzzle: Exclusion NG 1) | 195 nM | 42.1 nM |  | 32 nM |  | 
AUACACUAGCGAGGAUAUUGGAAAGGAAGUGUACAAGAAGGCGCCCGUGGAAGGGUGAAACAUGAGGAUCACCCAUGUGAAUAA [PowerStrip EXNG 1.29] (Eterna round: R96, puzzle: Exclusion NG 1) | 151 nM | 66.1 nM |  | 96.2 nM |  | 
UUGUUAUGUGUAGGAUAUGCAUAUUAUUAUUAUGCAGAAGGACAUGAGGAUCACCCAUGUAUAUUAUUAUUAUAUGUUAUAUAU [Title] (Eterna round: R96, puzzle: Exclusion NG 1) | 29.3 nM | 22.8 nM |  | 19 nM |  | 
AGAUCUAGGACAGGAUAUACCGAUGGCUUCAUCGAAGAUGAAGCCAUCACAUGAGGAUCACCCAUGUAGAAGGGUCCUAGAUCA [Omei Exc(NG) 2Av9] (Eterna round: R96, puzzle: Exclusion NG 2) | 11.5 nM | 13.7 nM |  | 9.95 nM |  | 
AGUGGGCUAGGAUAUCGAUGAACUCACAUGAGGAUCACCCAUGUGUCUUUGGUGGGCGCACGAGAAGGAGUAAGAU [Tiorat] (puzzle: Exclusion 5) |  |  | 36.5 nM |  |  | 
UCGAUGUGAGGAUAUAACAGGACGAACUCUUAAUAGUACGGUUAGAAGGCACAUGAGGAUCACCCAUGUGACGA [EX4 B.27] (Eterna round: R97, puzzle: Exclusion 4) | 40.1 nM | 17.7 nM |  |  |  | 
GUUGUUUAUGUAGGAUAUGCCUGGCGUGCCUUUGCAGAAGGACAUGAGGAUCACCCAUGUAACAUGAGGCUCACCCAUGUCGCG [salish99_ExNG1_r04_109] (Eterna round: R96, puzzle: Exclusion NG 1) | 438 nM | 277 nM |  | 185 nM |  | 
GUGAAACAUGAGGAUCACCCAUGUGAGGAUAUGAUACUAUGUACUUCGGUACAUAGUAUCAGAAGGCACAGUGA [Ex1-3: 6] (puzzle: Exclusion 1) |  |  | 65.4 nM |  |  | 
UGUGCGUAUGUGAGGAUAUGCUGGUCCUUGGAUCAGCAGAAGGCACAUGAGGAUCACCCAUGUGGUGUCGUACC [salish99_Bmod_Ex4_002] (puzzle: Brourd's mod of Exclusion 4) |  |  | 243 nM |  |  | 
CGCUGGACAGGAUAUGUUCUUGGGCACUUGAGGAUCACCCAAGUCAUCGAGACAACAGGCACAGAAGGGUUUAUGG [salish99_ex5_r4_024] (Eterna round: R97, puzzle: Exclusion 5) | 30.7 nM | 38.4 nM |  |  |  | 
UUAAUUAAUUGACUGCAAGAUCAACAUGAGGAUCACCCAUGUGAGGAUAUCAGCUCGAUUAGAGCUGAGAAGGCACAAGCAGUC [ExNG3/16-A1] (Eterna round: R96, puzzle: Exclusion NG 3) | 80.4 nM | 17.5 nM |  | 15 nM |  | 
GUUGUGUAAGGAUAUGCCUGGCCGUGAGGCCAGAUUGAGUGGCAGAAGGUACAUGAGGAUCACCCAUGUACGGG [salish99_ex4_4_003] (Eterna round: R97, puzzle: Exclusion 4) | 145 nM | 26.8 nM |  |  |  | 
UUUUUCGAACAAGCUACGUACAUGAGGAUCACCCAUGUUGGUAGAUUUGAGUAGGUUUGGAUGGAAGCUCGUCUUAU [JR_SV3TOV1_Sub083] (puzzle: Sensor v3, turn-off variant 1) |  |  | 44.5 nM |  | 19.2 nM | 21.4 nM
AGCUGUGGCCGAGGAUAUCUACAUGAGGAUCACCCAUGUAAAGGGUGUAUCGGGAAAACCUCGAUGGAGAAGGCGGUCUCAGCA [Eli eng2 - 047] (Eterna round: R96, puzzle: Exclusion NG 2) | 95.5 nM | 296 nM |  | 45.3 nM |  | 
AGUACUGACGCGUCGGUGUUAGUACAAUAAGCUUGUGAAACAUGAGGAUCACCCAUGUCCUCAUAAGCUCGUCUUAU [salish99_TOv2_r3_082] (puzzle: Sensor v3, turn-off variant 2) |  |  | 720 nM |  | 15.9 nM | 15.4 nM
